B1: CPEB3 Ribozyme (parent)
chain: GGGGGCCACAGCAGAAGCGUUCACGUCGCGGCCCCUGUCAGAUUCUGGUGAAUCUGCGAAUUCUGCUGU

Variants of: B1
Assay: self-cleavage, relative activity (ratio to wild type); higher = more cleavage; co-transcriptional

Variant | self-cleavage
U38C G48A | 0.963
C39G G41U | 0.436
C39G G41C | 0.351
U38C A42G | 0.938
U38C A42U | 0.827
U38C A42C | 0.885
C39U G50U | 0.895
C39U G50C | 0.744
U38C G50A | 0.948
U38C G50C | 0.942
U38C A40G | 0.842
U38C A40C | 0.77
U38C A40U | 0.889
U38C U69A | 0.988
U38C U69C | 1.06
C39U G56A | 1
C39U G56C | 0.887
C39A U44G | 0.562
C39A U44C | 0.432
C39A U44A | 0.638
U38G U44G | 0.346
U38G U44C | 0.273
C39A U67G | 0.932
C39A U67C | 0.918

Variant | self-cleavage
C39A U67A | 0.846
C39G A40C | 0.606
C39G A40U | 0.644
C39G A42C | 0.553
C39G A42G | 0.739
C39G A42U | 0.725
C39G C45U | 0.938
C39G C45G | 0.828
C39G C45A | 0.787
U38G G58A | 0.257
U38G G58C | 0.236
U38G C54A | 0.304
C39G C63A | 0.494
C39G C63U | 0.934
C39G U55A | 0.866
U38C A60G | 0.78
U38C A60C | 0.293
C39G A51C | 0.718
C39G A51U | 0.853
C39G A51G | 0.924
U38C G65U | 0.495
U38C G65C | 0.519
U38C G65A | 0.746
U38G U49A | 0.178

Variant | self-cleavage
U38G U49C | 0.231
U38G U49G | 0.264
C39U G65A | 0.56
C39U G65U | 0.498
C39U G58C | 0.946
C39U G58U | 0.961
C39U G58A | 0.873
C39G C66G | 0.566
C39G C66U | 0.961
C39A A42G | 0.35
C39A A42C | 0.476
U38G G56C | 0.237
U38G G56U | 0.672
U38G G56A | 0.722
C39U U46G | 0.997
C39U U46C | 0.822
U38G U55C | 0.172
U38G U55A | 0.196
U38G U55G | 0.283
U38A C66G | 0.764
U38A C66A | 0.721
U38A C66U | 0.917
C39U G48U | 0.941
C39U G48A | 0.998

Variant | self-cleavage
U38C A59U | 0.316
U38G C63A | 0.155
U38G C66U | 0.194
U38G C66A | 0.285
U38G C66G | 0.229
C39U G68C | 0.97
C39U G68U | 0.95
C39A U43C | 0.517
C39A U43A | 0.386
C39G G58A | 0.864
C39G G58U | 1.01
C39G A59U | 0.587
C39G A59C | 0.488
U38C U62G | 0.717
U38C U62C | 0.633
C39G U44G | 0.709
C39G U44A | 0.772
C39G U44C | 0.58
C39U G47C | 0.957
U38A G56A | 0.922
U38A G50C | 0.911
U38A G50U | 0.894
C39U U44A | 0.517
U38A U67G | 0.9

Variant | self-cleavage
U38A U67A | 0.941
U38C U67A | 0.931
U38C U67C | 0.949
C39U C66A | 0.541
C39U C66U | 0.885
C39G U61A | 0.703
C39G U61G | 0.597
U38G A60G | 0.249
U38G A60U | 0.331
C39G U43G | 0.448
C39G U43A | 0.522
C39A G56U | 0.984
C39A G56C | 0.904
C39A G56A | 0.898
C39G U69C | 1.05
U38A G41C | 0.675
C39G U64C | 0.736
C39G U64G | 0.642
U38C U55C | 0.556
U38C U55A | 0.733
C39A U64C | 0.544
U38C C57G | 0.369
C39A G48A | 0.968
C39U A60U | 0.266

Variant | self-cleavage
C39U A60C | 0.341
C39U A60G | 0.667
C39A U46G | 0.957
C39A U46C | 0.808
C39G C54U | 0.888
C39G C54A | 0.561
C39G C54G | 0.625
C39A A51C | 0.654
C39A A51G | 0.802
C39A A60U | 0.24
C39A A60C | 0.286
C39A A60G | 0.606
U38G C57U | 0.282
U38G C57A | 0.161
C39G G68C | 0.955
C39G G68A | 0.95
U38A G58U | 0.936
U38A G58A | 0.848
C39A G68C | 0.932
C39A G68U | 0.976
U38C C66A | 0.687
U38C C66G | 0.717
C39U A51U | 0.836
U38C C54G | 0.643

Variant | self-cleavage
U38C C54U | 0.948
C39U U49A | 0.971
C39A A40C | 0.835
C39A A40G | 0.841
C39A A40U | 0.475
C39G U53G | 0.533
C39G U53A | 0.538
C39G U53C | 0.516
C39U A40G | 0.813
C39U A40C | 0.756
U38G A42G | 0.189
U38G A42C | 0.264
U38G A42U | 0.178
C39G G47A | 0.996
C39G G47C | 0.986
C39G G47U | 0.989
U38C C45A | 0.885
U38C C45U | 0.922
C39G U49A | 0.923
C39G U49C | 0.875
U38C U49C | 0.999
U38C U49G | 0.916
C39A U62A | 0.549
C39U A59G | 0.987

Variant | self-cleavage
U38C U64G | 0.785
U38C U64C | 0.662
U38C G68C | 0.975
U38C G68U | 0.997
U38C G68A | 0.992
C39A G50C | 0.602
C39A G50A | 0.912
C39A G50U | 0.847
C39U U43C | 0.687
U38C U46A | 0.943
U38C U46C | 0.966
U38C U61C | 0.57
C39G U67C | 0.93
U38G A59C | 0.232
U38G A59G | 0.132
U38A U46G | 0.943
C39U C57U | 0.37
C39A U53C | 0.37
C39A U53G | 0.351
C39A U53A | 0.447
U38A G65U | 0.633
U38A G65C | 0.578
C39G A52U | 0.858
C39G A52G | 0.917

Variant | self-cleavage
C39G A52C | 0.89
U38G G65U | 0.28
U38G G65A | 0.257
U38G U43C | 0.161
U38G U43G | 0.213
U38G U43A | 0.247
C39A G47U | 0.919
C39A G47A | 0.949
U38A G47U | 1
U38A G47C | 0.937
U38A G47A | 0.916
U38G C39A | 0.8
U38A U43C | 0.9
U38A U43G | 0.8
C39G G56C | 0.938
C39G G56U | 1
C39G G56A | 0.882
C39A U69G | 0.964
U38C G58C | 0.929
U38C G58A | 0.895
U38C G58U | 1.01
C39U | 0.954
C39G | 0.967
C39A | 0.903

Variant | self-cleavage
C39A U55C | 0.736
C39A U55G | 0.808
C39A C54A | 0.583
C39A C54G | 0.427
C39A C54U | 0.765
U38G U64A | 0.163
U38G U64C | 0.235
U38G U64G | 0.25
U38G A52G | 0.327
U38G A52C | 0.275
U38A U53C | 0.811
U38C U44A | 0.891
U38C U44C | 0.856
U38C G56A | 0.879
U38C G56U | 0.658
U38C G56C | 0.401
U38G U67C | 0.302
U38G U67G | 0.273
U38G U67A | 0.295
C39G G65A | 0.599
U38A C63U | 0.877
U38A C63G | 0.67
U38A U55G | 0.758
U38A U55A | 0.779

Variant | self-cleavage
U38A U55C | 0.846
U38A U62C | 0.594
U38A U62A | 0.648
U38C C39U | 0.702
U38C C39G | 0.448
U38C C39A | 0.299
U38G G68A | 0.259
U38G G41C | 0.226
U38G C45A | 0.286
U38G C45U | 0.28
C39A G41U | 0.277
U38A U44A | 0.854
U38A U44G | 0.875
C39A U49A | 0.902
U38C C63U | 0.876
U38A U64C | 0.776
U38G G48U | 0.266
U38G G48C | 0.236
C39A C45A | 0.64
C39A C45U | 0.708
U38C G41A | 0.736
U38C G41C | 0.773
C39G G50C | 0.771
C39A C66A | 0.435

Variant | self-cleavage
C39A C66U | 0.828
C39G U46A | 0.997
C39G U46G | 0.907
U38C A51C | 0.87
U38C A51G | 0.88
U38A U69A | 0.98
C39A U61G | 0.402
C39A U61C | 0.328
U38G A51C | 0.293
U38C U43A | 0.8
U38C U43C | 0.858
C39A C57G | 0.327
C39A C57U | 0.346
C39A A59C | 0.386
C39G U62C | 0.658
C39G U62G | 0.592
C39G U62A | 0.788
C39A C63U | 0.776
C39A C63A | 0.465
C39A C63G | 0.407
C39U C63G | 0.451
C39U C63A | 0.54
C39U C63U | 0.84
C39G G48U | 0.966

Variant | self-cleavage
C39G G48A | 0.957
C39G A60C | 0.265
C39G A60U | 0.354
C39G A60G | 0.794
C39U A42C | 0.542
C39U A42G | 0.514
C39U G41U | 0.337
C39U G41A | 0.475
C39A A52C | 0.67
C39A A52U | 0.673
C39A A52G | 0.833
C39U C54G | 0.546
C39U C54U | 0.853
C39U C54A | 0.526
U38G G47A | 0.272
U38G G47U | 0.219
C39A G65C | 0.361
C39A G65A | 0.478
C39A G65U | 0.397
U38G U46C | 0.294
U38G U46A | 0.233
C39A G58A | 0.625
C39A G58U | 0.948
C39U A52C | 0.776

Variant | self-cleavage
C39U A52G | 0.948
C39U A52U | 0.78
U38A G48U | 0.957
U38A G48C | 0.887
U38A G48A | 0.938
U38A G68U | 0.939
U38A G68C | 0.927
U38C G47U | 0.925
U38C G47A | 0.933
U38A U61A | 0.782
U38A U61G | 0.637
U38A U61C | 0.507
U38C A52C | 0.921
U38G U69A | 0.352
U38G U69C | 0.412
U38G U69G | 0.42
C39U C45U | 0.862
U38A U49C | 0.899
U38A U49G | 0.962
U38A U49A | 0.846
U38G G50U | 0.271
U38G U62C | 0.261

From the RNAGym collection of RNA variant scans (doi:10.7554/elife.80360)
